Experiment: soluble on expression in E. coli; label from the status in PepcDB or PDB records

Soluble on expression in E. coli, not soluble:
MGSDKIHHHHHHMLEFTKRSLMNKYNINERVLELYERALNDVEKEFKYYDEIREYNQLKVLKAFQEERISESHFTNSSGYGYNDIGRDSLDRVYANIFNTESAFVRPHFVNGTHAIGAALFGNLRPNDTMMSICGMPYDTLHDIIGMDDSKKVGSLREYGVKYKMVDLKDGKVDINTVKEELKKDDSIKLIHIQRSTGYGWRKSLRIAEIAEIIKSIREVNENVIVFVDNCYGEFVEEKEPTDVGADIIAGSLIKNIGGGIATTGGYIAGKEEYVTQATFRVTVPGIGGECGSTFGVMRSLYEGLFMAPHVTIEAVKGAVFCARIMELAGFDVLPKYNDKRTDIIQAIKFNDEKKLIDFIKGIQTASPVDSFVQCEAWDMPGYEDKVIMAAGTFVQGASIELSADAPIREPYIGYLQGGLTFDHAKLGVLIALSKLIM
MGSDKIHHHHHHMLEGEFLSVAELKDLTLSLASKFLNNLLASKLLVSKQLFIDRKKELGLLEERLKSGKAQFIVIYGRRRVGKTALILEFLRRHGGLYLLARETSEIENLERFSLRLAEYFNDSFLKKNPLRSLDAFFEYLSTKAEKPFIIAIDEFPYLVKGNKALPSILQEYWEMKLSKKKIFLIVSGSSVSMTERLLGYKSPLYGRRTAQLKLKPLDFFNAREFLPKYSLEDFVRVYGILGGTPAYLLEFSDEKSLEENLKSYFRVDSLLYGDALFILREELDEPRNYFAIMEAIARGNTTLGEIVNETGLERATVGKYLSVLIDLDLVRREVPITASRKSRKGRYYIADNYFAFWFRYVYPNADLIESGNGELLVDTVMDDIDHYTGEVFEGVAKEFLLRLNKSERLPFRFSRVGRWWYKNEEIDLVALNEREKKVLFIEVKWKDLSKREARGILKDLKRKAKLVGLDEWGKHYGLVAKSVRGKDEIKEEGWLAWDLEDIHRMAF
MGSDKIHHHHHHMLEGKVAVVTGGGQGIGAAIAQLFAENGMKVVIAEIDEEAGVEREEMLRERGLDVTFVKTDVADENSVKNMVRKTVEIYGGVDVLVNNAAVMSVKSIFERPLEEWERVIRVNLTGPYICSRYCAEEMIKRGGGVIINIASTRAFQSEPDTEPYSASKGGLVALTHSLAVSLSRYHIRVVSISPGWIETSEWKKKSLRKKPDLRPIDHEQHPAGRVGNPLDIAHLCVFLADDEKAGFITGTNFIVDGGMTVKMIYEE
MGSDKIHHHHHHMLGLIKKKANTLLGIDISSTSVKLLELSRSGGRYKVEAYAVEPLPPNAVVEKNIVELEGVGQALSRVLVKAKTNLKSAVVAVAGSAVITKTIEMEAGLSEDELENQLKIEADQYIPYPLEEVAIDFEVQGLSARNPERVDVLLAACRKENVEVREAALALAGLTAKVVDVEAYALERSYALLSSQLGADTDQLTVAVVDIGATMTTLSVLHNGRTIYTREQLFGGRQLTEEIQRRYGLSVEEAGLAKKQGGLPDDYDSEVLRPFKDAVVQQVSRSLQFFFAAGQFNDVDYIVLAGGTASIQDLDRLIQQKIGTPTLVANPFADMALNGKVNAGALASDAPALMIACGLALRSFD
MGSDKIHHHHHHMLHGTTTKAADALDITQPAVSKILLQLTNKAGFPLFRNHRQRLIPTPEAHMLYAEVRRLFETVRGISQIAKEIRELRSGRLNISALPAFGSTLMPSIIASFTKQYPDVAITLDIRSSSTIIQRAGRNQLDIGVASEVNDETPSVVRRALIATPPVCVMPKGHPLSKLSVVQPDDFDGLNFVSLGVGDPMRKQLDELCEQRGVNRSLKVEAALSHSCINLVANGVGVTVVDRLSAWMAKDLPIEIRDFQPHLDINLSVYRPWGTIASSVADTFIEHLIQSTREYMNVVDRGIKALSEQ
MGSDKIHHHHHHMLIRLGYEIAIECAEATPVISLLEIHKDRQADIKRQTRVLTSPSVPTKLYHDLHGNGCRRFTAPAGTFRILYDAVIEDSGETDEVNTLAREVPVAELPDEVLFYLLGSRYCETDHLSSLAWQLFGHLPSGWARVQAIVDYVHNRLSFGYGYARSTRTAAQAHEERVGVCRDFAHLAITLCRCMNIPARYVNGYLGDIGVPIDPAPMDFSAWMEVFLDGKWYTFDPRHNQPRTGRIVIARGRDATDVPLLHSFGPHRLCLFKVWTYEQEGRSFNPPHRGIDRTVSAQMLA
MGSDKIHHHHHHMLKDFAKLETFLIVVRERSFSKASAKLGISQPAVTQQIKYIEEYLDTKIIERKKNGVKLTKDGEKLLTIALRLERAIVTAEKETMKIIKKDFSFNIGASFTIGNYILPNCLGNIKEMIKNDVFVKIDSSDNIIEALIEKKIDLALIESPIFKDNIVYREWVEDEFVLFSNSPLPKTVKKEDLLTFSWICREWGSNTRRIINETLDDVGIDCTTFDIKGVVSSSTGVKHTVLKSPKFPEESPKPTVAILSKYVVQDDLVNNSLHESKIRGCKLKRKLYLAYLKDRKNDAFVDTVSSCLMCNKNLG
MGSDKIHHHHHHMLKDLVREKLLTIMNTKAYTQFNPEQLLQLENEMKIYMKSGDSALTEGNYFFLMEMLFYVLVYRNQDVDAQVVYNTLRDRLGENSYKMVIMKATLLQINGNDKGAIEYLENLLNDDLEYETDFVTYVSIAKKLIAIKTTSKNLSQESVLKEVVALTDKFPLDAELWWYASEIYFEMGQFEKACYCLEQVLCITPFNYACFGRLSETLYYEALRSKKQTKTELLEKALKNALRSVELSELYLKGWALVNIISRELGRNKQNDLIKLSASKLKEISAKSNNKDKITAELILNKI
MGSDKIHHHHHHMLKFGTAGIPINAKNTESALEYLKEIKLDAMELEFVRGVNLKAEKAESLAKNLKITLSAHAPYYINLNAKEPEKIESSIKRIVDSAKIISIFNKKNSENKNVVFHSGFYLKQDKDLVYEKIKVNIQKILKIMDENKINAILRPETTGKISQFGSIDELIQLSTEIDIMPCIDFSHVYARSLGKINDYDSFSNILSKLENNLGKKGIKDMHIHISGIDFGNGGEKKHFPILNSEFNYMAVLKALKDFECSGTVICESPKLEYDAVILKKNYEEL
MGSDKIHHHHHHMLKNIPIPSPLSPVEGILIKRKTLERYFSIERLEQQAHQRAKRILREAEEEAKTLRMYAYQEGYEQGMIDALQQVAAYLTDNQTMAWKWMEKIQIYARELFSAAVDHPETLLTVLDEWLRDFDKPEGQLFLTLPVNAKKDHQKLMVLLMENWPGTFNLKYHQEQRFIMSCGDQIAEFSPEQFVETAVGVIKHHLDELPQDCRTISDNAINALIDEWKTKTQAEVIR
MGSDKIHHHHHHMLNDFVDRCVWAADLSAEQRDRVRRAMFVREYTQGDYVCHKGEIAEHWLGVLEGIVKITTVSPSGKSVTFTGVPTGGWFGEGAVLKSEIRKYDVMALRRSTIAFLPRDTFQWLLDTSLPFTRFLLTQFNERLGQFIAAVEYERLLDIDSRVARAVSSLFNEHLYPGIGNTLEISQEEIGLLAGISRQRANQALKVLEQQGLVRVDYGVIEVLDLEGLRQYGE
MGSDKIHHHHHHMLNIDGSKYIVNNNLKNYLDNIKKPWGILFYRVLWQQLDKIKTSKVLDFGSGFGITANHFASNNMVIAIEPNSELVEARIQENDYIQIVGDLKALKSQKDNYFDVILCHNVFEYAKEREEIFKEFLRILKPGGIISLVKHNHAGRIMQKVVFENNIDEAEKLLNGGIIEVLGFGKVSYYKLEDIKKWCKGFEVEIIKVLGIRTFWALQQDNKIKEDPIWQEKMFKIEMMVSNIDEYVNISFFNHIILKKALKNYALE
MGSDKIHHHHHHMLNSIMEDKKELLKSLLRQIHEGRDVSELKEQFKDVLASISPLEIPLIEQELVKEGISTREIAKMCDIHVELFRESVEGAFSVEDIPEGHPLHTLFMENREIVKDAEMLALLANTLEREMKGEILEEMESVVAELIKVGHTHYNREEMLIFPYIERRGITAIPNVLWFKHDEIRAALRVLHRLLTTDTGERWEEHIKRVVEKAREVSSAMLDMVFRENNIFYPTLKVLLSEGEWRAIREQEEIIGYYKLKPAEWKSDAKPVHPYEIDTTITAEQLISLPEEVQNLLKGQLLKPDSYEVVREDDLRLDEGYLSQREINAIFKALPFDITFVDSNDRVRFFSGSDRIFARTPSVIGRRVHLCHPPRSVHIVDKILKAFRNGERDFAEFWINMGGRIIHIRYFAVRDEGEYLGTVEVVQDVTEIKRLEGEKRLLGWK
MGSDKIHHHHHHMLPLEGLTVIAVEQAVAAPYCSSRLADAGAHVIKIERPEGDFARGYDAAAKGQSSYFVWLNRGKESAVVDLATKEGRAELEKLIASADVLLQNLKPGSMDKLGFARERLRKDYPKLIICTISGYGDEGPYAHRKAYDLLIQAESGLASITGGPESASRVGMSIVDVATGATAHAAILEALIGRGRTGQGADIRISMFDVMADWLTVPLLNAEAGNPPKRLGLAHPSIAPYGVFTSKDGKDILISIQSEREWKKLCSDVLRQPDLPNDPRLCNGVERVKNRAYTDKIVADIFGSLTRDDLLEHLAAADIAFAEVNAMEDLSHHPHLRRIEVDTPNGKVSYPAPAAIFVGDERRYGAVPGIGDKRK
MGSDKIHHHHHHMLRDLVYPPGCATCGLPVAKAGSLCSDCWCSVRFIERPYCEILGLPFGFDPGQGMVCAEAIANPPVFDRLRAAVVHDGAARDLVHRLKYGDRTDLAPMMAHWMIRAGGQELLRADAILPVPLHRWRLFSRQYNQSAELGRALAGLSDKPFLPGVLTRVKRTQKQVGLTEKARADNVRGAFKVAENRRDQVFGRHLVLVDDVYTTGATVSAATRALKRAGAVEVTVLTFAMALVTPI
MGSDKIHHHHHHMLRPHHSDNEQITLRSLLQSYRDQTTSNVVWGKIFEDFVTKYLMHDPLHYGRYEKVESYYEWAKERKDWNKNDIGIDLVAKLRHQESYVAIQCKFYKADHQISKKDIDSFIAESGKKIFKYRLLVDSTEVELSDNVNAMIKGQAIPIYRIDLRHMENSRIDWQTYATKKEVVLKSIKKPLPHQEPTMRPRAWIKAFSALAVASFK
MGSDKIHHHHHHMLRRIKAEQLQVGMFVARLGGPWHARAFRRSRFLVTSEEQVGEIRSSGVDEVWIDILKGRNAPTPQAATSPWETPEPAPALATANSLPAEFGLARELLQSGKSVIGSMFADVRMGRALEVSGALLLVDSASQSLSRHSQALIALARLKARDDYSYMHAFAVCALMVAVGRTMELPPEEVRDLGLAGLLHDIGKLTLPEAVLHKPTSRRPGEDEEIKRHPSAGYRILNEARLNANIVLDVCVHHHERVDGRGYPFGLVGRELSVHARIAAICDTYDSLTSSRPGHQQWSPARAMEYMAVRVDTLFDSRVFKAFTRTVGIYPLGTVLRLRSNRLAVVCAQHESEPLRPRVMAFYSVSASSALTPEVIDLSTSDDTVVAFEDPADWGYTDEQLLAIYAGQGQAGAAQAAAMAMPAA
MGSDKIHHHHHHMLSAMYLIDAFFSRQNNQFHLEQQSHCVNQIIEQWRYNGQIIGREIPQFVAEQKNQQGLAVRVTCPEQTSLLAEFNNQPVNDALQTAEKCGVSFESFHIVAEDLNSEITATETPAWQLLYTTYLQSCSPLQSGESLQPIPLYKQLKNIPHLAMDLVKWQENWQACDQLQMNGSVLEQQALVQISDTQSTLFKHGYHLTQEIERHSGIPTYYYLYRIGGKSCEAELQSRCPLCKRKWTLSHPLFDFLYFKCDHCRLVSNLSWHWQ
